According to patent US10117916B2, “Peptides and combination of peptides for use in immunotherapy against CLL and other cancers” (immatics biotechnologies GmbH, priority 2015, dated 2018):

molecular target: HLA-A*02:01 (Homo sapiens, UniProt P04439, D140Y/D185E/D98H/E176V/E277Q/G131W/G231S/I119V/I121R/I166T/I218V/L300P/L318F/N151K/N90K/P208A/P217A/Q86G/Q94H/R138H/R169H/T345S); assay: MHC binding assay: UV-ligand exchange with β2m ELISA (peptide exchange yield); conditions: MHC class I binding score; binding to HLA-A*02:01 ranged by peptide exchange yield (UV-ligand exchange, β2m ELISA)
Method in brief: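 Exchange yield, UV-ligand exchange: 100-fold diluted samples on streptavidin plates, 1 h at 37 °C; HRP anti-β2m 1 h at 37 °C; TMB read at 450 nm.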

| Substance | Peptide Exchange |
| --- | --- |
| 285 (GVATAGCVNEV; listed as Homo sapiens) [compound 285] | ″++++″ (≥75% = ++++) |
| 286 (FLLEDLSQKL; listed as Homo sapiens) [compound 286] | ″+++″ (≥50 = +++) |
| 287 (FLWEEKFNSL; listed as Homo sapiens) [compound 287] | ″++++″ (≥75% = ++++) |
| 288 (GLAESTGLLAV; listed as Homo sapiens) [compound 288] | ″+++″ (≥50 = +++) |
| 289 (ILEEQPMDMLL; listed as Homo sapiens) [compound 289] | ″+++″ (≥50 = +++) |
| 291 (ILLNEDDLVTI; listed as Homo sapiens) [compound 291] | ″+++″ (≥50 = +++) |
| 292 (AAALIIHHV; listed as Homo sapiens) [compound 292] | ″+++″ (≥50 = +++) |
| 293 (ALDIMIPMV; listed as Homo sapiens) [compound 293] | ″+++″ (≥50 = +++) |
| 294 (ALLDQLHTLL; listed as Homo sapiens) [compound 294] | ″++++″ (≥75% = ++++) |
| 295 (ALLQKLQQL; listed as Homo sapiens) [compound 295] | ″+++″ (≥50 = +++) |
| 296 (FIAPTGHSL; listed as Homo sapiens) [compound 296] | ″++″ (≥20% = ++) |
| 297 (FLVEPQEDTRL; listed as Homo sapiens) [compound 297] | ″+++″ (≥50 = +++) |
| 298 (IILPVEVEV; listed as Homo sapiens) [compound 298] | ″+++″ (≥50 = +++) |
| 299 (ILEENIPVL; listed as Homo sapiens) [compound 299] | ″+++″ (≥50 = +++) |
| 300 (ILLNPAYDVYL; listed as Homo sapiens) [compound 300] | ″+++″ (≥50 = +++) |
| 301 (AASPIITLV; listed as Homo sapiens) [compound 301] | ″+++″ (≥50 = +++) |
| 302 (ILQDLTFVHL; listed as Homo sapiens) [compound 302] | ″+++″ (≥50 = +++) |
| 303 (ILSQPTPSL; listed as Homo sapiens) [compound 303] | ″+++″ (≥50 = +++) |
| 304 (LAIVPVNTL; listed as Homo sapiens) [compound 304] | ″+″ (≥10% = +) |
| 305 (LLFPQIEGIKI; listed as Homo sapiens) [compound 305] | ″+++″ (≥50 = +++) |
| 306 (VVAEELENV; listed as Homo sapiens) [compound 306] | ″++″ (≥20% = ++) |
| 308 (SLYDVSRMYV; listed as Homo sapiens) [compound 308] | ″++++″ (≥75% = ++++) |
| 309 (ILYGTQFVL; listed as Homo sapiens) [compound 309] | ″+++″ (≥50 = +++) |
| 310 (LLSTLHLLV; listed as Homo sapiens) [compound 310] | ″+++″ (≥50 = +++) |

| Substance | Peptide Exchange |
| --- | --- |
| 311 (LLVDVEPKV; listed as Homo sapiens) [compound 311] | ″+++″ (≥50 = +++) |
| 312 (LLYNSTDPTL; listed as Homo sapiens) [compound 312] | ″+++″ (≥50 = +++) |
| 313 (LMADLEGLHL; listed as Homo sapiens) [compound 313] | ″+++″ (≥50 = +++) |
| 314 (LMKDCEAEV; listed as Homo sapiens) [compound 314] | ″+++″ (≥50 = +++) |
| 315 (LVYEAPETV; listed as Homo sapiens) [compound 315] | ″+++″ (≥50 = +++) |
| 316 (MLLEHGITL; listed as Homo sapiens) [compound 316] | ″+++″ (≥50 = +++) |
| 317 (NLLAHIWAL; listed as Homo sapiens) [compound 317] | ″+++″ (≥50 = +++) |
| 318 (NLQVTQPTV; listed as Homo sapiens) [compound 318] | ″+++″ (≥50 = +++) |
| 319 (QVIPQLQTV; listed as Homo sapiens) [compound 319] | ″+++″ (≥50 = +++) |
| 321 (RLLEFELAQL; listed as Homo sapiens) [compound 321] | ″+++″ (≥50 = +++) |
| 324 (SLYSALQQA; listed as Homo sapiens) [compound 324] | ″+++″ (≥50 = +++) |
| 325 (TLENGVPCV; listed as Homo sapiens) [compound 325] | ″+++″ (≥50 = +++) |
| 326 (VLAFLVHEL; listed as Homo sapiens) [compound 326] | ″++++″ (≥75% = ++++) |
| 327 (VLIKWFPEV; listed as Homo sapiens) [compound 327] | ″++++″ (≥75% = ++++) |
| 328 (VLLPQETAEIHL; listed as Homo sapiens) [compound 328] | ″++++″ (≥75% = ++++) |
| 330 (VLMWEIYSL; listed as Homo sapiens) [compound 330] | ″+++″ (≥50 = +++) |
| 331 (VLWELAHLPTL; listed as Homo sapiens) [compound 331] | ″+++″ (≥50 = +++) |
| 333 (VTLEFPQLIRV; listed as Homo sapiens) [compound 333] | ″+++″ (≥50 = +++) |
| 334 (YLLEEKIASL; listed as Homo sapiens) [compound 334] | ″+++″ (≥50 = +++) |
| 335 (YLYQEQYFI; listed as Homo sapiens) [compound 335] | ″+++″ (≥50 = +++) |
| 336 (YMAVTTQEV; listed as Homo sapiens) [compound 336] | ″++++″ (≥75% = ++++) |
| 337 (YMYEKESEL; listed as Homo sapiens) [compound 337] | ″++″ (≥20% = ++) |
| 338 (FLDMTNWNL; listed as Homo sapiens) [compound 338] | ″++++″ (≥75% = ++++) |
| 339 (GLWGTVVNI; listed as Homo sapiens) [compound 339] | ″+++″ (≥50 = +++) |

| Substance | Peptide Exchange |
| --- | --- |
| 340 (KLLEEICNL; listed as Homo sapiens) [compound 340] | ″++++″ (≥75% = ++++) |
| 341 (LLAELPASVHA; listed as Homo sapiens) [compound 341] | ″+++″ (≥50 = +++) |
| 342 (SLITPLQAV; listed as Homo sapiens) [compound 342] | ″+++″ (≥50 = +++) |
| 344 (VLAFENPQV; listed as Homo sapiens) [compound 344] | ″+++″ (≥50 = +++) |
| 345 (YLIEPDVELQRI; listed as Homo sapiens) [compound 345] | ″+++″ (≥50 = +++) |
| 346 (VLVQVSPSL; listed as Homo sapiens) [compound 346] | ″+++″ (≥50 = +++) |
| 347 (YLGPVSPSL; listed as Homo sapiens) [compound 347] | ″+++″ (≥50 = +++) |
| 348 (ALAKPPVVSV; listed as Homo sapiens) [compound 348] | ″+++″ (≥50 = +++) |
| 349 (ALATHILSL; listed as Homo sapiens) [compound 349] | ″+++″ (≥50 = +++) |
| 350 (ALEDRVWEL; listed as Homo sapiens) [compound 350] | ″+++″ (≥50 = +++) |
| 351 (ALSEKLARL; listed as Homo sapiens) [compound 351] | ″+++″ (≥50 = +++) |
| 352 (ALVFELHYV; listed as Homo sapiens) [compound 352] | ″+++″ (≥50 = +++) |
| 353 (ATPMPTPSV; listed as Homo sapiens) [compound 353] | ″++″ (≥20% = ++) |
| 354 (FIMDDPAGNSYL; listed as Homo sapiens) [compound 354] | ″+++″ (≥50 = +++) |
| 355 (FIWPMLIHI; listed as Homo sapiens) [compound 355] | ″+++″ (≥50 = +++) |
| 356 (FLHDHQAEL; listed as Homo sapiens) [compound 356] | ″++″ (≥20% = ++) |
| 357 (FLIQEIKTL; listed as Homo sapiens) [compound 357] | ″+++″ (≥50 = +++) |
| 358 (FLTDYLNDL; listed as Homo sapiens) [compound 358] | ″+++″ (≥50 = +++) |
| 359 (FMQDPMEVFV; listed as Homo sapiens) [compound 359] | ″+++″ (≥50 = +++) |
| 360 (HLIDTNKIQL; listed as Homo sapiens) [compound 360] | ″+++″ (≥50 = +++) |
| 361 (ILQEFESKL; listed as Homo sapiens) [compound 361] | ″+++″ (≥50 = +++) |
| 362 (ILTELGGFEV; listed as Homo sapiens) [compound 362] | ″+++″ (≥50 = +++) |
